Consider 9 molecules from patent US20230391826A1 (SANFORD BURNHAM PREBYS MEDICAL DISCOVERY INSTITUTE, published 2023).

Like-named read-outs stand apart in the source and are kept apart here. Where no end group is shown, it is not given here. [ ]: non-standard residue; d: D form. The star is where a group is joined. Biotin = O=C1N[C@H]2[C@H](CS[C@H]2CCCCC(=O)*)N1; βAla = NCCC(=O)O; Cam = NC(=O)C*

For test [1], the target named is T1, EphA2 endogenously expressed on PC3 prostate cancer cells (UniProt P29317 24-976, limits assumed). The test is described as follows: cell-based or functional assay.
In test [2] the target is T1, EphA2 endogenously expressed on PC3 …. The test is described as follows: cell-based or functional assay. This is another data set of the same source.
Test [3] addresses T2, EphA2 ligand binding domain (EphA2 LBD), residues 28-200 (UniProt P29317 28-200).
T2 construct: range 28-200; Expressed in E. coli; also called soluble EphA2 LBD; soluble monomeric EphA2 LBD
The test is described as follows: ITC, soluble EphA2 LBD and peptide. Here is the method:
(§1) For ITC, all peptides are dissolved in DMSO and both the EphA2 LBD and the peptides are diluted to obtain a final buffer containing 9.5 mM HEPES, pH 7.9, 95 mM NaCl, and 5% DMSO. The experiments are carried out at 296 K (23° C.) using an ITC200 calorimeter (Microcal). Two-microliter aliquots of a peptide solution are injected into the cell containing 205 μL EphA2 LBD. 200-400 μM peptides are titrated into 20-40 μM EphA2 LBD. Experimental data are analyzed using the Origin software package (Microcal). The integrated values for the reaction heats are normalized to the amount of injected peptide after blank subtraction.
For orientation: In ITC the heat of successive injections is recorded.

Test [4] has as its target T3, EphA2 extracellular domain fused to the Fc portion of an antibody (EphA2-Fc).
T3 construct: extracellular domain; Immobilized on the ELISA wells; also called immobilized EphA2
The test is described as follows: ELISA, inhibition of ephrinA5-AP binding to immobilized EphA2-Fc; representative experiment, triplicates. (In general: An ELISA detects its analyte on a solid surface through an enzyme-linked reagent.)

Test [5] concerns the target T3, EphA2 extracellular domain fused to the …. The test is described as follows: ELISA, inhibition of ephrinA5-AP binding to immobilized EphA2-Fc.
The target is the same in test [6]. Described as above. This is another data set of the same source.
For test [7], the target named is T2, EphA2 ligand binding domain (EphA2 …). The test is described as follows: ITC, EphA2 LBD (200-250 µM) titrated into 10-12.5 µM peptide; single titration shown.
The target is the same in test [8]. The test is described as follows: ITC, soluble EphA2 LBD and peptide. Here is the method:
as §1
The source holds these as a separate data set.

Test [9] has as its target T1, EphA2 endogenously expressed on PC3 …. The test is described as follows: cell-based or functional assay. This is another data set of the same source.
For test [10], the target named is T2, EphA2 ligand binding domain (EphA2 …). The test is described as follows: ITC, soluble EphA2 LBD and peptide. The source holds these as a separate data set.
Test [11] deals with T3, EphA2 extracellular domain fused to the …. The test is described as follows: ELISA, inhibition of ephrinA5-AP binding to immobilized EphA2-Fc; representative experiment, triplicates. Here is the method:
FIG. 1A-1C illustrates an example of Potency and selectivity of EphA2-targeting dimeric peptides. […] The graphs show averages ±SD from triplicate measurements from a representative experiment. […] The 10 nM peptide concentration is outlined in red. […] Values are normalized to ephrin binding without peptide. The graphs show averages and SDs from triplicate measurements (with each measurement shown as a dot).
This is another data set of the same source.

Test [12] addresses T2, EphA2 ligand binding domain (EphA2 …). The test is described as follows: ITC, EphA2 LBD (200-250 µM) titrated into 10-12.5 µM peptide; single titration shown. This is another data set of the same source.
Test [13] shares this target. The description is as above. The source holds these as a separate data set.

T2 sequence (P29317 other isoform, or with tags, fused parts or gaps limits assumed, form in doubt): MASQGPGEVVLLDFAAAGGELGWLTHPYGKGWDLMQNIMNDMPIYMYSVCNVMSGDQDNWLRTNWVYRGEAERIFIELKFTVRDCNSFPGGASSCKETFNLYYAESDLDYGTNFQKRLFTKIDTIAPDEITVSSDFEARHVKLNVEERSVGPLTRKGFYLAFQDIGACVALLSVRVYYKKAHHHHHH
T3 sequence (P29317 whole entry, the tested form may be a part): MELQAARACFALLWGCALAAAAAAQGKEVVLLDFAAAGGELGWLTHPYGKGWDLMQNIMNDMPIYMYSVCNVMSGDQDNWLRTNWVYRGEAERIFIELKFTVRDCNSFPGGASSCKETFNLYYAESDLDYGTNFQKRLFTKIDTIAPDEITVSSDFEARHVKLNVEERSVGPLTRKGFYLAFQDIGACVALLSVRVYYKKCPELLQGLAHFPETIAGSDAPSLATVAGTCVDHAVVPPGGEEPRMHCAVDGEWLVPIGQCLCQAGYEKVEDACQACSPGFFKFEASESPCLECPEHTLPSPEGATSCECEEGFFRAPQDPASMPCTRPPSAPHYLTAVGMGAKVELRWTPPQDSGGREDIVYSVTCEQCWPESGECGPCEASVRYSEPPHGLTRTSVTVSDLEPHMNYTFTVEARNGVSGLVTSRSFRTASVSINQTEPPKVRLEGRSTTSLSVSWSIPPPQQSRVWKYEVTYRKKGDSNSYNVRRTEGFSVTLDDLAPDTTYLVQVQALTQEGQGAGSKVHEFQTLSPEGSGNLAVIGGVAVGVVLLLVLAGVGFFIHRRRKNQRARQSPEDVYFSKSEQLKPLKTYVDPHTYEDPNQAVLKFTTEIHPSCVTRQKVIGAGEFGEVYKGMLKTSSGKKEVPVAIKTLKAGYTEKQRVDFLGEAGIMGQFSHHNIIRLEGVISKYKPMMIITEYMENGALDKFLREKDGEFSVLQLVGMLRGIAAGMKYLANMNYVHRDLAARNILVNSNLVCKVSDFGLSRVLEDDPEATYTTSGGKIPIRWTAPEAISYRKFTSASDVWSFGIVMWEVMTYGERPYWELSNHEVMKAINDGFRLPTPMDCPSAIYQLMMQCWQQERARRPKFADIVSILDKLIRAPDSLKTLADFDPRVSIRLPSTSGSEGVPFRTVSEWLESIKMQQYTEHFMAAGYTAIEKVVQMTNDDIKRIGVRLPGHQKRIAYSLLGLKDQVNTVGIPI

B1: linear dimer (head-to-tail) (peptide)
peptide: [βAla]WLAYPDSVPYRPKGGAWLAYPDSVPYRPK-NH2
modifications: N-terminus assumed
SMILES: CC(C)C[C@H](NC(=O)[C@H](Cc1c[nH]c2ccccc12)NC(=O)CCN)C(=O)N[C@@H](C)C(=O)N[C@@H](Cc1ccc(O)cc1)C(=O)N1CCC[C@H]1C(=O)N[C@@H](CC(=O)O)C(=O)N[C@@H](CO)C(=O)N[C@H](C(=O)N1CCC[C@H]1C(=O)N[C@@H](Cc1ccc(O)cc1)C(=O)N[C@@H](CCCNC(=N)N)C(=O)N1CCC[C@H]1C(=O)N[C@@H](CCCCN)C(=O)NCC(=O)NCC(=O)N[C@@H](C)C(=O)N[C@@H](Cc1c[nH]c2ccccc12)C(=O)N[C@@H](CC(C)C)C(=O)N[C@@H](C)C(=O)N[C@@H](Cc1ccc(O)cc1)C(=O)N1CCC[C@H]1C(=O)N[C@@H](CC(=O)O)C(=O)N[C@@H](CO)C(=O)N[C@H](C(=O)N1CCC[C@H]1C(=O)N[C@@H](Cc1ccc(O)cc1)C(=O)N[C@@H](CCCNC(=N)N)C(=O)N1CCC[C@H]1C(=O)N[C@@H](CCCCN)C(N)=O)C(C)C)C(C)C
As to B1, in test [1], the “Blig (bias factor)” value is 0.62, the “EC50 PY588” value stood at 0.49 nM, the “Emax PY588” value is 0.61 normalized to ephrinA1-Fc and the “IC50 PAKT” value amounted to 0.12 nM. Further, in test [2], the “EC50 pAKT inhib” value stood at 90 pM, the “EC50 pY588” value turned out to be 0.73 nM, the “Etop pAKT inhib” value turned out to be 0.87 and the “Etop pY588” value was 0.76 normalized to ephrinA1-Fc. For the same molecule, the “βlig (bias factor)” value in test [2] came out at 0.62.

B2: βA-WLA-YGSGC dimer (C-ter) (peptide)
peptide: [βAla]WLAYPDSVPYGSGC
modifications: also: homodimer, disulfide at 15, other end not in the chain
notes: C-terminally disulfide-linked homodimer made from monomer (9*); also called dimer (1); dimeric peptide (1)
For the molecule B2, in [3], the Kd is 2900 nM and the “N (binding stoichiometry)” value is 1.7. Further, the IC50 in test [4] turned out to be 67 nM. Further, the IC50 in test [5] worked out at 71 nM. The molecule also came in with an IC50 in test [6] of 71 nM. Moreover, in test [7], the Kd is 3760 nM. In test [8], the “-TΔS” value turned out to be 16.3 kcal/mol, the Kd was determined as 2900 nM, the “N (binding stoichiometry)” value came to 1.7 and the ΔG was -7.55 kcal/mol. The same molecule gave a ΔH in [8] of -23.9 kcal/mol. In test [9], the “agonistic potency (pY588), fold lower than the other dimers with similar configuration” value is 10 to 60 fold. Moreover, in test [10], the Kd was 2900 nM and the “N (binding stoichiometry)” value is 1.7. Besides, in test [2], the “EC50 pAKT inhib” value was 39 nM, the “Etop pAKT inhib” value came to 0.9, the “Etop pY588” value was 0.49 normalized to ephrinA1-Fc and the “βlig (bias factor)” value was 0.506.

B3: CcamGA-WLA-YRPK-bio (peptide)
peptide: C(Cam)GAWLAYPDSVPYRPK(Biotin)
notes: also called monomer (10); monomeric peptide (10)
On to B3, for which the “N (binding stoichiometry)” value in test [3] is 0.8. Moreover, the IC50 in test [11] was 22 nM. For the same molecule, in test [8], the “-TΔS” value came out at 25.5 kcal/mol, the “N (binding stoichiometry)” value stood at 0.8 and the ΔH is -35.1 kcal/mol. In test [2], the “Etop pAKT inhib” value came to 1.06, the “Etop pY588” value is 0.48 normalized to ephrinA1-Fc and the “βlig (bias factor)” value was found to be 0.64.

B4: Click dimer (N-ter) (peptide)
peptide 1: KAWLAYPDSVPYRPK
peptide 2: XGAWLAYPDSVPYRPK
modifications: not fully specified; propargylglycine (Pra) at position 1, joined by a click linkage to KN3 of the other chain; C-terminal amide; azido-lysine (KN3) at position 1, joined by a click linkage to Pra of the other chain; C-terminal amide
Turning to B4, in test [1], the “Blig (bias factor)” value amounted to 0.93, the “EC50 PY588” value is 0.22 nM, the “Emax PY588” value was 0.71 normalized to ephrinA1-Fc and the “IC50 PAKT” value amounted to 0.024 nM. In test [2], the “EC50 pAKT inhib” value came to 80 pM, the “EC50 pY588” value was found to be 0.64 nM, the “Etop pAKT inhib” value was 0.87 and the “Etop pY588” value is 0.98 normalized to ephrinA1-Fc. Further, the “βlig (bias factor)” value in test [2] was 0.5.

B5: βA-WLA-YRPKC dimer (C-ter) (peptide)
peptide: [βAla]WLAYPDSVPYRPKC
modifications: also: homodimer, disulfide at 15, other end not in the chain
notes: C-terminally disulfide-linked homodimer made from monomer (19*); also called dimer (2); dimeric peptide (2)
On to B5, for which, in [3], the dissociation constant Kd was 380 nM and the “N (binding stoichiometry)” value turned out to be 2. In addition, the concentration for half-maximal inhibition (IC50) in test [4] was determined as 0.47 nM. Moreover, the half-inhibitory concentration (IC50) in [5] was determined as 0.5 nM. In test [6], the IC50 worked out at 0.5 nM. In test [1], the “Blig (bias factor)” value came to 1.28, the “EC50 PY588” value turned out to be 2.6 nM, the “Emax PY588” value is 0.39 normalized to ephrinA1-Fc and the “IC50 PAKT” value was found to be 0.22 nM. In test [8], the “-TΔS” value was 19.5 kcal/mol, the Kd came to 380 nM, the “N (binding stoichiometry)” value worked out at 2 and the ΔG was -8.71 kcal/mol. In addition, in test [8], the ΔH was -28.2 kcal/mol. For the same molecule, in [10], the Kd was found to be 380 nM and the “N (binding stoichiometry)” value amounted to 2. In test [2], the “EC50 pAKT inhib” value came to 0.82 nM, the “EC50 pY588” value was 5.6 nM, the “Etop pAKT inhib” value turned out to be 0.86 and the “Etop pY588” value was 0.5 normalized to ephrinA1-Fc. Further, in [2], the “βlig (bias factor)” value is 0.73. In test [12], this molecule had a Kd of 329 nM.
As to CGAWLAYPDSVPYRPK-NH2 (also: homodimer: N-terminal Cys of two chains joined by disulfide) [CGA-WLA-YRPKam dimer (N-ter)], in [1], the “Blig (bias factor)” value came to 0.36, the “EC50 PY588” value was 0.12 nM, the “Emax PY588” value is 0.8 normalized to ephrinA1-Fc and the “IC50 PAKT” value stood at 0.043 nM. In test [2], the “EC50 pAKT inhib” value was 80 pM, the “EC50 pY588” value was found to be 0.36 nM, the “Etop pAKT inhib” value stood at 0.97 and the “Etop pY588” value is 0.98 normalized to ephrinA1-Fc. Further, the “βlig (bias factor)” value in test [2] was 0.51.

B6: Lys-linked dimer (C-ter) (peptide)
peptide 1: [βAla]WLAYPDSVPYRPKK
peptide 2: [βAla]WLAYPDSVPYRPK
modifications: also: bond at chain A 15 to a chain's C-terminus
As to B6, in test [1], the “Blig (bias factor)” value came to 0.79, the “EC50 PY588” value is 2.4 nM, the “Emax PY588” value was 0.37 normalized to ephrinA1-Fc and the “IC50 PAKT” value was found to be 0.63 nM. Further, in test [2], the “EC50 pAKT inhib” value is 0.42 nM, the “EC50 pY588” value was 2.6 nM, the “Etop pAKT inhib” value amounted to 1 and the “Etop pY588” value is 0.46 normalized to ephrinA1-Fc. In [2], the “βlig (bias factor)” value stood at 0.79.

B7: CGA-WLA-YR dimer (N-ter) (peptide)
peptide: CGAWLAYPDSVPYR
modifications: also: homodimer: N-terminal Cys of two chains joined by disulfide
notes: N-terminally disulfide-linked homodimer made from monomer (15*); also called dimer (4)
On to B7, for which, in test [3], the dissociation constant (Kd) was determined as 104 nM and the “N (binding stoichiometry)” value came to 2. The same molecule yielded an IC50 in test [4] of 6.7 nM. The molecule further displayed a half-inhibitory concentration (IC50) in test [5] of 7.9 nM. The same molecule registered an IC50 in test [6] of 7.9 nM. For the same molecule, the Kd in test [13] is 103 nM. Also, in [8], the “-TΔS” value amounted to 23.6 kcal/mol; the affinity, expressed as Kd, was 104 nM; the “N (binding stoichiometry)” value is 2; the ΔG is -9.47 kcal/mol. In test [8], this molecule came in with a ΔH of -33.1 kcal/mol. The “agonistic potency (pY588), fold lower than the other dimers with similar configuration” value in test [9] is 10 to 60 fold. Besides, in test [10], the equilibrium dissociation constant (Kd) was 104 nM and the “N (binding stoichiometry)” value amounted to 2. Also, in [2], the “EC50 pAKT inhib” value was found to be 0.53 nM, the “Etop pAKT inhib” value was 0.9, the “Etop pY588” value is 0.94 normalized to ephrinA1-Fc and the “βlig (bias factor)” value stood at 0.47.

B8: YSA-GSGSK-bio (peptide)
peptide: YSAYPDSVPMMSGSGSK(Biotin)
notes: Previously identified monomer, included for comparison; also called monomer (2*); 2*
Regarding B8, the IC50 in test [6] is 850 nM.

In general, Kd refers to the equilibrium constant for the complex coming apart. What is called IC50 is the point on the concentration scale where inhibition reaches its midpoint.
